Assay results published in paper PMC8722602 (bioRxiv, 2021).

Target: SARS-CoV-2 RBD-his tag protein (SARS-CoV-2, ancestral (Wuhan-Hu-1/WA1), UniProt P0DTC2)
Assay: ELISA

B1: Clone 2 (recombinant mAb, mouse variable regions on human IgG1) (antibody, V domains shown)
VH: EVQLQQSGPELVKPGASVKISCKASGYSFTGYSMNWMKQSPEKSLEWIGEINPSTGGTTDNQKFKAKATLTVDKSSSTAYMQLKSLTSEDSAVYYCARSRGDYWGQGTSVTVSS
VL: DIVLTQSPASLAVSLGQRATISCRASESVEYYGTSLMQWYQQKPGQPPKVLIYAASNVESGVPARFSGSGSGTDFSLNIHPVEEDDIAMYFCQQSRKVPWTFGGGTKLEIK
binding result: binds

B2: Clone 6 (recombinant mAb, mouse variable regions on human IgG1) (antibody, V domains shown)
VH: QVQLQQSAAELARPGASVKMSCKASGYTFTSYTMHWVKQRPGQGLEWIGYINPTSGYTEYNQNFKDKTTLTADKSSSTAYMQLNSLTSEDSAVYYCAREGHRVGPAYWGQGTLVTVSA
VL: not shown
binding result: binds
